Legend:
hIL-6R [1] = target: T1, hIL-6R (Homo sapiens, UniProt P08887); assay: IgG ELISA, binding to hIL-6R in the presence or absence of each small molecule, amino acid or amino acid metabolite
T1 sequence (P08887 20-355 limits assumed): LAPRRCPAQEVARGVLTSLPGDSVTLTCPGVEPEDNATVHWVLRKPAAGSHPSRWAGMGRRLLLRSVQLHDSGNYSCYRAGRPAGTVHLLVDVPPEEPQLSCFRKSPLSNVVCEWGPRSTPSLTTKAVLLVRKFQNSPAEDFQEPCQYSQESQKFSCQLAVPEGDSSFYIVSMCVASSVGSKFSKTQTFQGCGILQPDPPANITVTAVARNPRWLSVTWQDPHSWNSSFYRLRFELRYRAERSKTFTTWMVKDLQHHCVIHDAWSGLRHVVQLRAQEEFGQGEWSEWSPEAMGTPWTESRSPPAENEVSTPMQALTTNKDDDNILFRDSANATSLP
Experimental: Three types of antibodies obtained: 6RNMSC1-2_F02 and 6RNMSC1-3_G02, and GC413 were subjected to ELISA under the nine conditions described in Table 3. Meanwhile, each small molecule was appropriately prepared at the concentrations shown in Table 3 using the buffers indicated in Table 19. The antigen used was biotin-labeled hIL-6R.
First, a StreptaWell 96 microtiter plate (Roche) was coated at room temperature for one hour or more with 100 μl of PBS containing biotin-labeled hIL-6R. After washing with Wash buffer to remove unbound biotin-labeled hIL-6R from the plate, each well was blocked for one hour or more with 250 μl of Blocking Buffer. After Blocking Buffer was removed from each well, the purified IgGs were prepared to 2.5 μg/ml in Sample Buffer containing small molecules at the final concentrations shown in Table 3, and each was aliquoted at 100 μl into the plate. The plate was allowed to stand at room temperature for one hour to allow binding of each IgG to biotin-labeled hIL-6R in each well. After washing with Wash Buffer containing small molecules at the final concentrations shown in Table 3, an HRP-conjugated anti-human IgG antibody (BIOSOURCE) diluted with Sample Buffer containing the same small molecules was added to each well. The plate was incubated for one hour. Following wash with Wash Buffer containing each small molecule, the TMB single solution (ZYMED) was added to each well. The chromogenic reaction in the solution of each well was terminated by adding sulfuric acid. Then, the developed color was assessed by measuring absorbance at 450 nm.
6RNMSC1-2_F02 described in Example 14, which has antigen-binding activity in the presence of kynurenine, and negative control GC413 were subjected to ELISA under the seven conditions described in Table 18. Meanwhile, each small molecule was appropriately prepared at the concentrations shown in Table 18 using the buffers indicated in Table 4. The antigen used was biotin-labeled hIL-6R. ELISA was carried out using the method described in Example 11.

hIL-6R [2] = target: T1, hIL-6R; assay: Phage ELISA, binding to hIL-6R in the presence or absence of SC; conditions: in the presence of SC
Experimental: Culture supernatants containing phages were collected according to a conventional method (Methods Mol. Biol. (2002) 178, 133-145) from single colonies of E. coli obtained as described in (14-2). Phages purified by the method described in (2-4) were subjected to ELISA by the following procedure. A StreptaWell 96 microtiter plate (Roche) was coated overnight with 100 μl of TBS containing biotin-labeled hIL-6R. After biotin-labeled hIL-6R was removed by washing each well of the plate with TBST, the wells were blocked with 250 μl of 2% skim milk/TBS for one hour or more. 2% skim milk/TBS was removed, and then the prepared, purified phages were added to each well. The plate was allowed to stand at room temperature for one hour to allow binding of antibody-displaying phages to biotin-labeled hIL-6R in each well in the presence or absence of SC. After washing with TBST or SC/TBST, an HRP-conjugated anti-M13 antibody (Amersham Pharmacia Biotech) diluted with TBS or SC/TBS was added to each well. The plate was incubated for one hour. Following wash with TBST or SC/TBST, the TMB single solution (ZYMED) was added to each well. The chromogenic reaction in the solution of each well was terminated by adding sulfuric acid. Then, the developed color was assessed by measuring absorbance at 450 nm.

B1: 6RNMSC1-2_F02: antibody that binds to hIL-6R in the presence of kynurenine; SEQ ID NOs: 86 and 87 (antibody, listed as Homo sapiens, V domains shown)
VH: QVQLVQSGAEVKKPGSSVKVSCKASGGTFSSYAISWVRQAPGQGLEWMGGIIPIFGTANYAQKFQGRVTITADESTSTAYMELSSLRSEDTAVYYCARDAPVVARPRGAFDIWGQGTMVTVSS
VL: DIVMTQTPLSSPVTLGQPASISCRSSQSLVHSDGNTYLSWLQQRPGQPPRLLIHEISNRFSGVPDRFSGSGAGTNFTLKISRVEAEDVGVYYCMQATQFPRTFGQGTKVEIK
absorbance under condition 5 compared to condition 1 (hIL-6R [1]; Table 18: condition 5 (3-hydroxykynurenine solution)): the same high absorbance
absorbance under condition 7 as compared to condition 1 (hIL-6R [1]; Table 18: condition 7 (absence of small molecules) vs condition 1 (kynurenine solution)): markedly lower
absorbance under other conditions (hIL-6R [1]; Table 18: remaining conditions, incl. tryptophan): markedly lower
absorbance under condition 7 compared to condition 8 (hIL-6R [1]; condition 7 (100 μM kynurenine)): the same
absorbance under condition 9 as compared to condition 8 (hIL-6R [1]; condition 9 (in the absence of small molecules) vs condition 8 (complete small molecule cocktail solution)): markedly lower
absorbance under other conditions (hIL-6R [1]; remaining conditions of Table 3): markedly lower
binding activity to hIL-6R in the presence of a small molecule cocktail (phage ELISA) (hIL-6R [2]): have binding activity

From patent US11673947B2, “Target tissue-specific antigen-binding molecule” (Chugai Seiyaku Kabushiki Kaisha, priority 2012, dated 2023)
